According to the supplement of paper PMC10126150:
± gives the standard deviation of the averaged measurements.

test system: ATP; assay: switch fluorescence ratio, 500 uM ATP over buffer (Cy3 cluster intensity, sum of 5 cycles each) (fold (ratio)); higher = stronger signal-on switching upon ATP binding; sequences stand for … in TCGTCGGCAGCGTCAGATGTGTATAAGAGACAGTTTTTTTTTTTTTTTTTTTTTTTTT…TC; conditions: aptamer strand: ATP DNA aptamer (quencher-CACCTGGGGGAGTATTGCGGAGGAAGG + anchor), 100 nM annealed; ATP concentration: 500 uM
Summary of the method: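 Cy3-labelled switching-strand clusters on a modified Illumina MiSeq flow-cell were annealed to 100 nM quencher-labelled ATP aptamer and imaged first in selection buffer, then after 15 min with 500 uM ATP at 22 °C. NaOH stripping and re-annealing separated each of five buffer/ATP cycles, and clusters outside 100-1000 RFU were excluded. The fluorescence ratio sums target-cycle Cy3 intensity over buffer-cycle Cy3 intensity per cluster and averages it per switch-domain sequence.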
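Further: ATP exposure 15 min at 22 °C before imaging.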

| Sequence | switch fluorescence ratio |
| --- | --- |
| GGAATTATGT | 1.02 ± 0.041 |
| TTGTTATGGT | 1 ± 0.025 |
| GGGGGGCGTT | 0.998 ± 0.017 |
| ATGGGCTTGC | 0.994 ± 0.083 |
| ATGAAATTTT | 1.0061 ± 0.00088 |
| ACTGACGATG | 1.31 ± 0.018 |
| CCGCTTTTTT | 1.28 ± 0.23 |
| GGGAAAGCTG | 0.956 ± 0.096 |
| ATGGTTAGGT | 1.02 ± 0.029 |
| CGCCTAACGA | 1.08 ± 0.024 |
| CGTCTGGCTG | 1 ± 0.057 |
| TAAAAAGGTA | 1.02 ± 0.028 |
| ATAGACGTAT | 1.01 ± 0.011 |
| CGGGCCGTTT | 1.06 ± 0.077 |
| AAGGTTTTTA | 0.993 ± 0.029 |
| TTTTACGCT | 1.03 ± 0.06 |
| ATAGTACGCG | 0.992 ± 0.03 |
| ATTATGTCTG | 0.966 ± 0.071 |
| ACGCCGGGGT | 1.3 ± 0.51 |
| AATAGGTTAG | 1.001 ± 0.0075 |
| TAACGAGATT | 1.02 ± 0.026 |
| CGCGGAACTG | 1.09 ± 0.016 |
| TATAGCTTCG | 1 ± 0.043 |
| GCGGCCTTAC | 2.42 ± 0.4 |
| TTTGCTAGGT | 1.02 ± 0.031 |
| AAGGGGTGGA | 1.01 ± 0.05 |

| Sequence | switch fluorescence ratio |
| --- | --- |
| TATATGATGC | 0.984 ± 0.029 |
| AAAAGTAGAA | 0.992 ± 0.023 |
| TTAGAAAATA | 1.12 ± 0.15 |
| TGTGATGTGG | 1.04 ± 0.083 |
| GTTGTTTTGT | 0.985 ± 0.021 |
| GATCGGGGTG | 0.965 ± 0.021 |
| TGTTGGTTTG | 1.08 ± 0.14 |
| GAGGTTATTG | 0.99 ± 0.025 |
| TCTAGAGGGT | 1.01 ± 0.028 |
| GAGTGCGCTG | 1.02 ± 0.04 |
| TAACAGAAGA | 0.991 ± 0.017 |
| CGGTTATCCT | 1.04 ± 0.032 |
| GGCCTATTCC | 1.04 ± 0.011 |
| CGAGGGTAGT | 1.01 ± 0.025 |
| CCAACGGGGG | 1.061 ± 0.0019 |
| GCGGAATGGA | 1.02 ± 0.013 |
| TTAGGAAGAC | 2.27 ± 1.4 |
| AGTGGTGTTG | 0.9577 ± 0.0092 |
| GGATTACGGT | 1.01 ± 0.03 |
| TGACGACGCC | 4.6 ± 0.054 |
| ATAATTACTT | 1.01 ± 0.018 |
| TGGTATATTA | 0.983 ± 0.027 |
| TTCGTGACCT | 1.1 ± 0.094 |
| GGGGTGGAGT | 0.971 ± 0.019 |
| TGTTGTTAAT | 0.999 ± 0.019 |
| ATCAGGAAAT | 1.01 ± 0.017 |

| Sequence | switch fluorescence ratio |
| --- | --- |
| AAGTAGATTG | 1.003 ± 0.0081 |
| AAGGGGGGGC | 0.998 ± 0.062 |
| AAAGTCTATT | 0.99 ± 0.02 |
| TTGAAAAATG | 1.03 ± 0.028 |
| ATTTGTGTTA | 1.01 ± 0.013 |
| TCATGAGGGA | 1.02 ± 0.022 |
| AACCTATTAT | 0.998 ± 0.019 |
| TTTTTCAGGC | 0.969 ± 0.055 |
| AACTGTGGAT | 0.999 ± 0.034 |
| ATATATAAAT | 0.978 ± 0.033 |
| GGGGGTATTA | 0.97014 ± 0.00019 |
| TTAGAGGGGT | 0.992 ± 0.03 |
| AGGGTGACAT | 0.999 ± 0.013 |
| GAGGACTCGT | 1.01 ± 0.016 |
| GGGCGGACAG | 0.985 ± 0.019 |
| GCGATAGCTC | 0.973 ± 0.043 |
| TCAAGCCCAT | 1 ± 0.045 |
| CGCCAACAAC | 1.78 ± 0.036 |
| GGTTCTTTAG | 1.015 ± 0.0033 |
| CCGGACGGAG | 1.04 ± 0.026 |
| GATGTGAGCC | 1.01 ± 0.018 |
| TGAGGGGCAG | 0.984 ± 0.013 |
| TAGGGTGGGG | 0.99 ± 0.072 |
| TAAAAGTG | 0.961 ± 0.05 |
| GCTTACGGGA | 1.028 ± 0.0016 |
| ACTTTGAAGC | 0.996 ± 0.019 |

| Sequence | switch fluorescence ratio |
| --- | --- |
| TCCGTCTGTT | 1.003 ± 0.0052 |
| TGGATTGAGC | 0.967 ± 0.026 |
| TGAGTTGAAG | 0.9869 ± 0.0056 |
| AAAATGGGTG | 0.976 ± 0.015 |
| GCAGACCATT | 1.049 ± 0.0067 |
| AGGTTGGGT | 0.973 ± 0.025 |
| ATATATGCAG | 0.986 ± 0.018 |
| CGATTGTGGG | 0.9962 ± 0.0092 |
| TTGTGTAGCT | 1.02 ± 0.0057 |
| GTGGGGAGTC | 0.992 ± 0.015 |
| GCCCCGGCTG | 1.03 ± 0.045 |
| AATGGGAAGG | 0.971 ± 0.028 |
| TTTAAGAGCT | 0.997 ± 0.015 |
| GCGATCTGGA | 1.04 ± 0.022 |
| TTTTTTGACC | 1.02 ± 0.044 |
| GGTTGAAGAG | 0.955 ± 0.011 |
| TCGGGGAATG | 1.002 ± 0.0032 |
| AGAATTTTCC | 1.08 ± 0.076 |
| TACATGTCCG | 1.05 ± 0.064 |
| AACTGGATAT | 1.04 ± 0.017 |
| TTTTAAAGTG | 0.993 ± 0.034 |
| CGTTTTCGGG | 1.02 ± 0.016 |
| TTGTAAGGGG | 1.009 ± 0.0031 |
| TTATTATACG | 1.01 ± 0.054 |
| ATGGCCGGCC | 1.01 ± 0.02 |
| AGTTTGGGC | 0.9604 ± 0.0015 |

| Sequence | switch fluorescence ratio |
| --- | --- |
| AGGGGCACGA | 1.03 ± 0.024 |
| AGCTGAAG | 0.967 ± 0.013 |
| AGGAGTTTGG | 0.981 ± 0.015 |
| CTGTCGACTT | 0.986 ± 0.011 |
| TTTTCCAGCC | 1.04 ± 0.036 |
| TATCGCGAAT | 1.01 ± 0.021 |
| TTTTTTT | 0.9671 ± 0.0074 |
| ATTAAGGGCA | 0.97 ± 0.011 |
| CTGCGGGGGT | 1.03 ± 0.038 |
| AGGCGTTGGT | 1.05 ± 0.11 |
| GAGAGATAGT | 1.03 ± 0.015 |
| GCTAACAGAG | 0.984 ± 0.035 |
| CAGTGTAGGG | 1.017 ± 0.01 |
| TAAGGACGGG | 1.02 ± 0.03 |
| TATGTGTAAC | 0.978 ± 0.02 |
| AGATAAATCA | 0.978 ± 0.033 |
| ACACTCATTG | 1.06 ± 0.074 |
| CTTACAGCTA | 1.097 ± 0.0016 |
| CACGGTTGGG | 0.976 ± 0.034 |
| TTTTCTTTGG | 1.03 ± 0.077 |
| GGCGGCGTCT | 0.998 ± 0.036 |
| TTGATAAAAA | 0.998 ± 0.083 |
| GATTTCCTGG | 1.01 ± 0.02 |
| GGAATTGGCG | 1.03 ± 0.023 |
| GCCCTTAGCA | 1.018 ± 0.0013 |
| GGATGGGGCA | 1 ± 0.023 |

| Sequence | switch fluorescence ratio |
| --- | --- |
| AGTTCATATA | 1.013 ± 0.0011 |
| TTGAAGCAAA | 1.44 ± 0.37 |
| GGGATAATGA | 0.977 ± 0.035 |
| TGGGTAAGGT | 0.993 ± 0.028 |
| AGGTGGAGGG | 1 ± 0.032 |
| TTAAAATGAG | 0.9972 ± 0.006 |
| TTTTTTATGT | 0.995 ± 0.029 |
| GCGTCGATTA | 0.96 ± 0.015 |
| CGTTTTGTGC | 1.03 ± 0.042 |
| GCTGACGGGA | 1.1 ± 0.015 |
| GGGGGACCTT | 1.04 ± 0.061 |
| TAGCGTTTGG | 1.01 ± 0.045 |
| GGGATGAATG | 0.9773 ± 0.0079 |
| GTGATAGATT | 1 ± 0.013 |
| GGGGGGTTTG | 1 ± 0.037 |
| GTATGCGAGG | 1 ± 0.08 |
| TGGTTCGAGA | 0.979 ± 0.025 |
| ACCAGGACTA | 1.038 ± 0.0017 |
| CTAATGTGCG | 1.15 ± 0.28 |
| TGAGTAGGGG | 0.994 ± 0.017 |
| TGTTCACTTT | 1.04 ± 0.036 |
| AGCGAATGGT | 0.951 ± 0.012 |
| CTGTATATGG | 0.985 ± 0.042 |
